Consider six sequences from a protein production outcome set (Wang et al. 2014).

The data set can be described thus: label from the status in PepcDB records.
For the sequence “MSLFLKDDSIQIREVWNDNLQEEMDLIRDVVDDFPYVAMDTEFPGIVVRPVGTFKSNADYHYETLKTNVNILKMIQLGLTFSNEQGNLPTCGTDKYCIWQFNFREFDLDSDIFALDSIELLKQSGIDLAKNTLDGIDSKRFAELLMSSGIVLNENVHWVTFHSGYDFGYLLKLLTCQNLPDSQTDFFKLINVYFPTVYDIKHLMKFCNSLHGGLNKLAELLEVERVGICHQAGSDSLLTSCTFRKLKENFFVGPLHKYSGVLYGLGVENGQVAI”, the protein production result is recorded as “failed”.
“MYEHQTYEAILVRMLARVPETIDKREGSLIYDALAPGAAELAQAYAELVVNNNLSFADTASGEFLTRRAAEFGIKRKVATKAWRRGGFLDSNNALLNIPLGSRYSIGGLNYTAIEQISTGAYVLECETAGTAGNQQFGDLLPIAYVNSLARAELTEVLVPGEDEETDEALLSRYYETVNEPAFGGNMADYRQKVNAINGVGGTKVFPTWAGGGTVKCTIIASDWAKPSPELVNEVQSTMDPEENQGMGLGQAPIGHAVTIAGVDKVTVDVETTLTLAPGVTPGQVQSDVEAILDAYLLEQRKTWAAQTQIIIRMAQIDARMLTVQGVEDVTGTKLNGTEANFLLDEEEIPILGTVIINELEHHHHHH”: the protein production result is “failed”.
The result for “MSLKIAKVEALSVAMGDGTGWMPTSAFVRITAEDGTVGWGEASPMLGGIASLGVVARDIAPFLEGQEVLDHAVLLDRMMHRLVKLGPEGIATAALAACDIALWDLKGKLLGQPIYKLLGGAWRTRLPCYSSIGGNAARSVDEVVREVARRVEAEQPAAVKIRWDGDRTRCDVDIPGDIAKARAVRELLGPDAVIGFDANNGYSVGGAIRVGRALEDLGYSWFEEPVQHYHVGAMGEVAQRLDITVSAGEQTYTLQALKDLILSGVRMVQPDIVKMGGITGMMQCAALAHAHGVEFVPHQTQPGVGHFANIHVLSTLMHMTKPVELADRWDRGRPVFRNPAEPVDGHFALGDAPGLGIVVDEDELASRATEITVGRDQRPPAGGQYEGHHHHHH” reads “not failed”.
For the sequence “MKKEFSAGGVLFKDGEVLLIKTPSNVWSFPKGNIEPGEKPEETAVREVWEETGVKGEILDYIGEIHYWYTLKGERIFKTVKYYLMKYKEGEPRPSWEVKDAKFFPIKEAKKLLKYKGDKEIFEKALKLKEKFKL”, the protein production result was “not failed”.
“TTKKRVFHFGKGKSEGNKTMKELLGGKGANLAEMASIGLSVPPGFTVSTEACQQYQDAGCALPAGLWAEIVDGLQWVEEYMGATLGDPQRPLLLSVRSGAAVSMPGMMDTVLNLGLNDEVAAGLAAKSGERFAYDSFRRFLDMFGNVVMDIPRSLFEEKLEHMKESKGLKNDTDLTASDLKELVGQYKEVYLSAKGEPFPSDPKKQLELAVLAVFNSWESPRAKKYRSINQITGLRGTAVNVQCMVFGNMGNTSGTGVLFTRNPNTGEKKLYGEFLVNAQGEDVVAGIRTPEDLDAMKNLMPQAYDELVENCNILESHYKEMQDIEFTVQENRLWMLQCRTGKRTGKSAVKIAVDMVNEGLVEPRSAIKMVEPGHLDQLLHPQFENPSAYKDQVIATGLPASPGAAVGQVVFTAEDAEAWHSQGKAAILVRAETSPEDVGGMHAAVGILTERGGMTSHAAVVARGWGKCCVSGCSGIRVNDAEKLVTIGGHVLREGEWLSLNGSTGEVILGKQPLSPPALSGDLGTFMAWVDDVRKLKVLANADTPDDALTARNNGAQGIGLCRTEHMFFASDERIKAVRQMIMAPTLELRQQALDRLLPYQRSDFEGIFRAMDGLPVTIRLLDPPLHEFLPEGNIEDIVSELCAETGANQEDALARIEKLSEVNPMLGFRGCRLGISYPELTEMQARAIFEAAIAMTNQGVQVFPEIMVPLVGTPQELGHQVTLIRQVAEKVFANVGKTIGYKVGTMIEIPRAALVADEIAEQAEFFSFGTNDLTQMTFGYSRDDVGKFIPVYLAQGILQHDPFEVLDQRGVGELVKFATERGRKARPNLKVGICGEHGGEPSSVAFFAKAGLDYVSCSPFRVPIARLAAAQVLV”: the protein production entry was “not failed”.
Regarding “MKHSLSIIFILIAAMMWGTTGTAQVFAPAEAHPIIIGASRLAVGGLALFIFVMAQRKFQLRGWPVLPTFIAALSMAAYQPFFFSAVSITGVAVGTVVAIGSAPIIAGLLDWVIQRKPPGPTWGIATILAIAGCLLLTLPGEEVTVSPVGFLLAIGAGLSFAVYTAASKKLLQQQPSEAVVAVVFSLSALFLVPLFFLYDLSWLTEFRGIIVVLHLGIVATAIAYLLFTRGLTGVASSTAVTLALAEPLTAALLGVFLVGEALSFIAWGGVLLLLLGLAVLTGFTGARTPSTRFMRNKKDKVNVE”, the protein production entry is “failed”.
